“Also recorded” adds a separate entry of the source.
How the values were obtained:
[1] = system: corticospinal tract (CST) axons; assay: CST sprouting after intraspinal CNTF injection without pyramidotomy, BDA tracing; assay type: in vivo, mice
Experimental: For pyramidotomy, mice were anesthetized with ketamine/xylazine. The procedure is similar to that described previously […]. Briefly, an incision was made at the left side of the trachea. Blunt dissection was performed to expose the skull base and a craniotomy in the occipital bone allowed for access to the medullary pyramids. The left pyramid was cut with a fine scalpel medially up to the basilar artery. The wound was dosed in layers with 6.0 sutures. The mice were placed on soft bedding on a warming blanket held at 37° C. until fully awake. We traced the intact CST 4 weeks later with BDA (see below). For CNTF injection into adult SOCS3 f/f mice with neonatal AAV-Cre cortical injection, a laminectomy was performed at C1 and 1 ul of CNTF (10 ug/ml, PeproTech, 450-13) was injected with a nanoliter injector into the ventral side of the dorsal column (0.5 mm deep). BDA tracing was performed 6 weeks later.
To label CST axons by anterograde tracing, a total of 2.0 μl of BDA (10%, Invitrogen, D-1956) was injected into the right sensorimotor cortex at five sites (anterior-posterior coordinates from bregma in mm; 1.0, 0.5, 0, −0.5, −1.0, all at 1.0 mm lateral and at a depth of 0.5 mm). Mice were kept for an additional 2 weeks before being sacrificed.
Mice were given a lethal dose of anesthesia and transcardially perfused with 4% paraformaldehyde. Brains and spinal cords were isolated and post-fixed in the same fixative overnight at 4° C. Tissues were cryoprotected via increasing concentrations of sucrose. After embedding into OCT compound, the samples were snap frozen in dry ice. […]
For the groups of pyramidotomy, digital images of C7 or other levels of the spinal cord transverse sections were collected using a Nikon fluorescence microscope. […]
To quantify the number of sprouting axons, the methods used in previous studies (Liu et al., 2010) were followed. […] Only fibers crossing the three lines were counted in each section. The results were presented after normalization with the number of counted CST fibers at the medulla level. At least three sections were counted for each mouse.

[2] = system: retinal ganglion cells (RGCs) / optic nerve axons; conditions: SOCS3f/f mice, CNTF applied intravitreously; cited from earlier work

B1: ciliary neurotrophic factor (protein, UniProt P26441 1-200, looked up)
Ciliary neurotrophic factor: MAFTEHSPLTPHRRDLCSRSIWLARKIRSDLTALTESYVKHQGLNKNINLDSADGMPVASTDQWSELTEAERLQENLQAYRTFHVLLARLLEDQQVHFTPTEGDFHQAIHTLLLQVAAFAYQIEELMILLEYKIPRNEADGMPINVGDGGLFEKKLWGLKVLQELSQWTVRSIHDLRFISSHQTGIPARGSHYIANNKKM
CST sprouting at C7 spinal cord level ([1]; SOCS3f/f mice, cortical AAV-Cre at P1, CNTF injected at C1, no injury): but not C7; also recorded: No CST sprouts seen | CST sprouting at C1 spinal cord level ([1]; SOCS3f/f mice, cortical AAV-Cre at P1, CNTF injected into dorsal spinal cord at C1 in adulthood, no injury, vs saline): triggered a significant CST sprouting response; also recorded: promotes sprouting in SOCS3-deleted neurons in the absence of an injury; also recorded: numerous crossing CST axons | extent of CST sprouting compared with left pyramidotomy ([1]; single CNTF injection at C1, SOCS3-deleted mice): less than after left pyramidotomy; also recorded: less pronounced than what is seen after injury | effect of intravitreal CNTF on axon regeneration induced by SOCS3 deletion [2]: enhances axon regeneration induced by SOCS3 deletion
